Residue numbers refer to the chain shown, from its start. Names may count otherwise.
Test system: LPS induced mouse proteinuria model
Experiment: LPS induced mouse proteinuria model, protein in urine (prevention and reversal by dynamin gene delivery)
Format: in vivo
[1] = Table 2B Prevention, 2xLPS, t = 0
[2] = Table 2B Prevention, 2xLPS, t = 10 h
[3] = Table 2C Reversal, LPS at 0 and 24 h, t = 0
[4] = gene delivery immediately before LPS injection
[5] = injected at 48 hours, analyzed 12 hours post injection

dynWT: wild type dynamin overexpressed by adenovirus or delivered as dynamin 1 cDNA
Protein in the urine [1]: 0.28 ± 0.07 mg/mL
Protein in the urine [2]: 0.27 ± 0.07 mg/mL
Protein in the urine (Table 2B Prevention, 2xLPS, t = 24 h, listed as Dyn WT): 0.63 ± 0.12 mg/mL
Protein in the urine (Table 2B Prevention, 2xLPS, t = 24 h, listed as wildtype dynamin): 0.63 mg/mL
Protein in the urine (Table 2B Prevention, 2xLPS, t = 48 h, listed as Dyn WT): 1.18 ± 0.23 mg/mL
Protein in the urine (Table 2B Prevention, 2xLPS, t = 48 h, listed as wildtype dynamin): 1.18 mg/mL
Protein in the urine [3]: 0.30 ± 0.10 mg/mL
Protein in the urine (Table 2C Reversal, t = 48 h, at gene transfer, listed as Dyn WT): 1.17 ± 0.18 mg/mL
Protein in the urine (Table 2C Reversal, t = 48 h, at gene transfer, listed as wildtype dynamin): 1.26 mg/mL
Protein in the urine (Table 2C Reversal, t = 58 h, 10 hours after gene transfer, listed as Dyn WT): 1.10 ± 0.17 mg/mL
Protein in the urine (Table 2C Reversal, t = 58 h, 10 hours after gene transfer, listed as wildtype dynamin): 1.32 mg/mL
protection from LPS-induced proteinuria, in words [4]: did not protect against these changes
reversal of established proteinuria, in words [5]: did not reduce proteinuria

B1: dynR725A: dynamin mutant (SEQ ID NO.4) with impaired GTP hydrolysis capacity (protein, listed as Homo sapiens)
chain: MGNRGMEDLIPLVNRLQDAFSAIGQNADLDLPQIAVVGGQSAGKSSVLENFVGRDFLPRGSGIVTRRPLVLQLVNATTEYAEFLHCKGKKFTDFEEVRLEIEAETDRVTGTNKGISPVPINLRVYSPHVLNLTLVDLPGMTKVPVGDQPPDIEFQIRDMLMQFVTKENCLILAVSPANSDLANSDALKVAKEVDPQGQRTIGVITKLDLMDEGTDARDVLENKLLPLRRGYIGVVNRSQKDIDGKKDITAALAAERKFFLSHPSYRHLADRMGTPYLQKVLNQQLTNHIRDTLPGLRNKLQSQLLSIEKEVEEYKNFRPDDPARKTKALLQMVQQFAVDFEKRIEGSGDQIDTYELSGGARINRIFHERFPFELVKMEFDEKELRREISYAIKNIHGIRTGLFTPDMAFETIVKKQVKKIREPCLKCVDMVISELISTVRQCTKKLQQYPRLREEMERIVTTHIREREGRTKEQVMLLIDIELAYMNTNHEDFIGFANAQQRSNQMNKKKTSGNQDEILVIRKGWLTINNIGIMKGGSKEYWFVLTAENLSWYKDDEEKEKKYMLSVDNLKLRDVEKGFMSSKHIFALFNTEQRNVYKDYRQLELACETQEEVDSWKASFLRAGVYPERVGDKEKASETEENGSDSFMHSMDPQLERQVETIRNLVDSYMAIVNKTVRDLMPKTIMHLMINNTKEFIFSELLANLYSCGDQNTLMEESAEQAQRADEMLRMYHALKEALSIIGDINTTTVSTPMPPPVDDSWLQVQSVPAGRRSPTSSPTPQRRAPAVPPARPGSRGPAPGPPPAGSALGGAPPVPSRPGASPDPFGPPPQVPSRPNRAPPGVPSRSGQASPSRPESPRPPFDL
Protein in the urine [1]: 0.17 ± 0.07 mg/mL
Protein in the urine [2]: 0.23 ± 0.07 mg/mL
Protein in the urine (Table 2B Prevention, 2xLPS, t = 24 h): 0.20 mg/mL
Protein in the urine (Table 2B Prevention, 2xLPS, t = 48 h, listed as Dyn R725A): 1.25 ± 0.26 mg/mL
Protein in the urine (Table 2B Prevention, 2xLPS, t = 48 h, listed as R725A): 1.25 mg/mL
Protein in the urine [3]: 0.28 ± 0.08 mg/mL
Protein in the urine (Table 2C Reversal, t = 48 h, at gene transfer): 1.15 mg/mL
Protein in the urine (Table 2C Reversal, t = 48 h, at gene transfer, listed as Dyn R725A): 1.15 ± 0.15 mg/mL
Protein in the urine (Table 2C Reversal, t = 58 h, 10 hours after gene transfer): 0.38 mg/mL
Protein in the urine (Table 2C Reversal, t = 58 h, 10 hours after gene transfer, listed as Dyn R725A): 0.38 ± 0.20 mg/mL
protection from LPS-induced proteinuria, in words [4]: completely inhibited development of proteinuria after 24 hours
reversal of established proteinuria, in words [5]: almost complete reversal of proteinuria

B2: dynL356Q, G358V: dynamin mutant (SEQ ID NO.3) not recognized by cathepsin L; ELSGGA mutated to EQSVGA (protein, listed as Homo sapiens)
chain: B1 chain with L356Q, G358V, A725R
Protein in the urine [1]: 0.21 ± 0.05 mg/mL
Protein in the urine [2]: 0.26 ± 0.05 mg/mL
Protein in the urine (Table 2B Prevention, 2xLPS, t = 24 h, listed as Dyn L356Q, G358V): 0.47 ± 0.17 mg/mL
Protein in the urine (Table 2B Prevention, 2xLPS, t = 24 h, listed as L356Q, G358V): 0.47 mg/mL
Protein in the urine (Table 2B Prevention, 2xLPS, t = 48 h): 0.65 ± 0.10 mg/mL
Protein in the urine [3]: 0.18 ± 0.08 mg/mL
Protein in the urine (Table 2C Reversal, t = 48 h, at gene transfer, listed as Dyn L356Q, G358V): 1.20 ± 0.27 mg/mL
Protein in the urine (Table 2C Reversal, t = 48 h, at gene transfer, listed as L356Q, G358V): 1.20 mg/mL
Protein in the urine (Table 2C Reversal, t = 58 h, 10 hours after gene transfer, listed as Dyn L356Q, G358V): 0.71 ± 0.09 mg/mL
Protein in the urine (Table 2C Reversal, t = 58 h, 10 hours after gene transfer, listed as L356Q, G358V): 0.71 mg/mL
reduction of proteinuria [4]: ~50%
proteinuria (prevention, after the second dose of LPS): 0.65 mg/dL
reduction of proteinuria (reversal, injected at 48 hours, analyzed 12 hours post injection): ~50%

From patent publication US9144594B2, “Cathepsin L mediated diseases and associated methods and products” (University of Miami, priority 2005, dated 2015)
